Test results published in patent US20110091994A1, “Methods for Screening Compounds for Treating and/or Preventing an Hepatitis C Virus Infection” (priority 2008, published 2011).
Where two headings read alike, the source gives them in different places.

B1: CCDC100 (protein, UniProt Q8N960 1-986, looked up)
Centrosomal protein of 120 kDa: MVSKSDQLLIVVSILEGRHFPKRPKHMLVVEAKFDGEQLATDPVDHTDQPEFATELAWEIDRKALHQHRLQRTPIKLQCFALDPVTSAKETIGYIVLDLRTAQETKQAPKWYQLLSNKYTKFKSEIQISIALETDTKPPVDSFKAKGAPPRDGKVPAILAGLDPRDIVAVLNEEGGYHQIGPAEYCTDSFIMSVTIAFATQLEQLIPCTMKLPERQPEFFFYYSLLGNDVTNEPFNDLINPNFEPERASVRIRSSVEILRVYLALQSKLQIHLCCGDQSLGSTEIPLTGLLKKGSTEINQHPVTVEGAFTLDPPNRAKQKLAPIPVELAPTVGVSVALQREGIDSQSLIELKTQNEHEPEHSKKKVLTPIKEKTLTGPKSPTVSPVPSHNQSPPTKDDATESEVESLQYDKDTKPNPKASSSVPASLAQLVTTSNASEVASGQKIAVPATSHHFCFSIDLRSIHALEIGFPINCILRYSYPFFGSAAPIMTNPPVEVRKNMEVFLPQSYCAFDFATMPHQLQDTFLRIPLLVELWHKDKMSKDLLLGIARIQLSNILSSEKTRFLGSNGEQCWRQTYSESVPVIAAQGSNNRIADLSYTVTLEDYGLVKMREIFISDSSQGVSAVQQKPSSLPPAPCPSEIQTEPRETLEYKAALELEMWKEMQEDIFENQLKQKELAHMQALAEEWKKRDRERESLVKKKVAEYTILEGKLQKTLIDLEKREQQLASVESELQREKKELQSERQRNLQELQDSIRRAKEDCIHQVELERLKIKQLEEDKHRLQQQLNDAENKYKILEKEFQQFKDQQNNKPEIRLQSEINLLTLEKVELERKLESATKSKLHYKQQWGRALKELARLKQREQESQMARLKKQQEELEQMRLRYLAAEEKDTVKTERQELLDIRNELNRLRQQEQKQYQDSTEIASGKKDGPHGSVLEEGLDDYLTRLIEERDTLMRTGVYNHEDRIISELDRQIREILAKSNASN
B2: TRAF3IP3 (protein, UniProt Q9Y228 1-551, looked up)
TRAF3-interacting …: MISPDPRPSPGLARWAESYEAKCERRQEIRESRRCRPNVTTCRQVGKTLRIQQREQLQRARLQQFFRRRNLELEEKGKAQHPQAREQGPSRRPGQVTVLKEPLSCARRISSPREQVTGTSSEVFPAQHPPPSGICRDLSDHLSSQAGGLPPQDTPIKKPPKHHRGTQTKAEGPTIKNDASQQTNYGVAVLDKEIIQLSDYLKEALQRELVLKQKMVILQDLLSTLIQASDSSWKGQLNEDKLKGKLRSLENQLYTCTQKYSPWGMKKVLLEMEDQKNSYEQKAKESLQKVLEEKMNAEQQLQSTQRSLALAEQKCEEWRSQYEALKEDWRTLGTQHRELESQLHVLQSKLQGADSRDLQMNQALRFLENEHQQLQAKIECLQGDRDLCSLDTQDLQDQLKRSEAEKLTLVTRVQQLQGLLQNQSLQLQEQEKLLTKKDQALPVWSPKSFPNEVEPEGTGKEKDWDLRDQLQKKTLQLQAKEKECRELHSELDNLSDEYLSCLRKLQHCREELNQSQQLPPRRQCGRWLPVLMVVIAAALAVFLANKDNLMI
B3: IGLL1 (protein, UniProt P15814 38-213, looked up)
Immunoglobulin lambda-like …: LLRPTAASQSRALGPGAPGGSSRSSLRSRWGRFLLQRGSWTGPRCWPRGFQSKHNSVTHVFGSGTQLTVLSQPKATPSVTLFPPSSEELQANKATLVCLMNDFYPGILTVTWKADGTPITQGVEMTTPSKQSNNKYAASSYLSLTPEQWRSRRSYSCQVMHEGSTVEKTVAPAECS
B4: LIMS2 (protein, UniProt Q7Z4I7 1-341, looked up)
LIM and senescent cell …: MTGSNMSDALANAVCQRCQARFSPAERIVNSNGELYHEHCFVCAQCFRPFPEGLFYEFEGRKYCEHDFQMLFAPCCGSCGEFIIGRVIKAMNNNWHPGCFRCELCDVELADLGFVKNAGRHLCRPCHNREKAKGLGKYICQRCHLVIDEQPLMFRSDAYHPDHFNCTHCGKELTAEARELKGELYCLPCHDKMGVPICGACRRPIEGRVVNALGKQWHVEHFVCAKCEKPFLGHRHYEKKGLAYCETHYNQLFGDVCYNCSHVIEGDVVSALNKAWCVSCFSCSTCNSKLTLKNKFVEFDMKPVCKRCYEKFPLELKKRLKKLSELTSRKAQPKATDLNSA
B5: ZMYM2 (protein, UniProt Q9UBW7 1-1377, looked up)
Zinc finger MYM-type protein 2: MDTSSVGGLELTDQTPVLLGSTAMATSLTNVGNSFSGPANPLVSRSNKFQNSSVEDDDDVVFIEPVQPPPPSVPVVADQRTITFTSSKNEELQGNDSKITPSSKELASQKGSVSETIVIDDEEDMETNQGQEKNSSNFIERRPPETKNRTNDVDFSTSSFSRSKVNAGMGNSGITTEPDSEIQIANVTTLETGVSSVNDGQLENTDGRDMNLMITHVTSLQNTNLGDVSNGLQSSNFGVNIQTYTPSLTSQTKTGVGPFNPGRMNVAGDVFQNGESATHHNPDSWISQSASFPRNQKQPGVDSLSPVASLPKQIFQPSVQQQPTKPVKVTCANCKKPLQKGQTAYQRKGSAHLFCSTTCLSSFSHKPAPKKLCVMCKKDITTMKGTIVAQVDSSESFQEFCSTSCLSLYEDKQNPTKGALNKSRCTICGKLTEIRHEVSFKNMTHKLCSDHCFNRYRMANGLIMNCCEQCGEYLPSKGAGNNVLVIDGQQKRFCCQSCVSEYKQVGSHPSFLKEVRDHMQDSFLMQPEKYGKLTTCTGCRTQCRFFDMTQCIGPNGYMEPYCSTACMNSHKTKYAKSQSLGIICHFCKRNSLPQYQATMPDGKLYNFCNSSCVAKFQALSMQSSPNGQFVAPSDIQLKCNYCKNSFCSKPEILEWENKVHQFCSKTCSDDYKKLHCIVTYCEYCQEEKTLHETVNFSGVKRPFCSEGCKLLYKQDFARRLGLRCVTCNYCSQLCKKGATKELDGVVRDFCSEDCCKKFQDWYYKAARCDCCKSQGTLKERVQWRGEMKHFCDQHCLLRFYCQQNEPNMTTQKGPENLHYDQGCQTSRTKMTGSAPPPSPTPNKEMKNKAVLCKPLTMTKATYCKPHMQTKSCQTDDTWRTEYVPVPIPVPVYIPVPMHMYSQNIPVPTTVPVPVPVPVFLPAPLDSSEKIPAAIEELKSKVSSDALDTELLTMTDMMSEDEGKTETTNINSVIIETDIIGSDLLKNSDPETQSSMPDVPYEPDLDIEIDFPRAAEELDMENEFLLPPVFGEEYEEQPRPRSKKKGAKRKAVSGYQSHDDSSDNSECSFPFKYTYGVNAWKHWVKTRQLDEDLLVLDELKSSKSVKLKEDLLSHTTAELNYGLAHFVNEIRRPNGENYAPDSIYYLCLGIQEYLCGSNRKDNIFIDPGYQTFEQELNKILRSWQPSILPDGSIFSRVEEDYLWRIKQLGSHSPVALLNTLFYFNTKYFGLKTVEQHLRLSFGTVFRHWKKNPLTMENKACLRYQVSSLCGTDNEDKITTGKRKHEDDEPVFEQIENTANPSRCPVKMFECYLSKSPQNLNQRMDVFYLQPECSSSTDSPVWYTSTSLDRNTLENMLVRVLLVKDIYDKDNYELDEDTD
B6: NFE2 (protein, UniProt Q16621 1-373, looked up)
Transcription factor NF-E2 45 …: MSPCPPQQSRNRVIQLSTSELGEMELTWQEIMSITELQGLNAPSEPSFEPQAPAPYLGPPPPTTYCPCSIHPDSGFPLPPPPYELPASTSHVPDPPYSYGNMAIPVSKPLSLSGLLSEPLQDPLALLDIGLPAGPPKPQEDPESDSGLSLNYSDAESLELEGTEAGRRRSEYVEMYPVEYPYSLMPNSLAHSNYTLPAAETPLALEPSSGPVRAKPTARGEAGSRDERRALAMKIPFPTDKIVNLPVDDFNELLARYPLTESQLALVRDIRRRGKNKVAAQNCRKRKLETIVQLERELERLTNERERLLRARGEADRTLEVMRQQLTELYRDIFQHLRDESGNSYSPEEYALQQAADGTIFLVPRGTKMEATD
B7: ACLY (protein, UniProt P53396 1-1101, looked up)
ATP-citrate synthase: MSAKAISEQTGKELLYKFICTTSAIQNRFKYARVTPDTDWARLLQDHPWLLSQNLVVKPDQLIKRRGKLGLVGVNLTLDGVKSWLKPRLGQEATVGKATGFLKNFLIEPFVPHSQAEEFYVCIYATREGDYVLFHHEGGVDVGDVDAKAQKLLVGVDEKLNPEDIKKHLLVHAPEDKKEILASFISGLFNFYEDLYFTYLEINPLVVTKDGVYVLDLAAKVDATADYICKVKWGDIEFPPPFGREAYPEEAYIADLDAKSGASLKLTLLNPKGRIWTMVAGGGASVVYSDTICDLGGVNELANYGEYSGAPSEQQTYDYAKTILSLMTREKHPDGKILIIGGSIANFTNVAATFKGIVRAIRDYQGPLKEHEVTIFVRRGGPNYQEGLRVMGEVGKTTGIPIHVFGTETHMTAIVGMALGHRPIPNQPPTAAHTANFLLNASGSTSTPAPSRTASFSESRADEVAPAKKAKPAMPQDSVPSPRSLQGKSTTLFSRHTKAIVWGMQTRAVQGMLDFDYVCSRDEPSVAAMVYPFTGDHKQKFYWGHKEILIPVFKNMADAMRKHPEVDVLINFASLRSAYDSTMETMNYAQIRTIAIIAEGIPEALTRKLIKKADQKGVTIIGPATVGGIKPGCFKIGNTGGMLDNILASKLYRPGSVAYVSRSGGMSNELNNIISRTTDGVYEGVAIGGDRYPGSTFMDHVLRYQDTPGVKMIVVLGEIGGTEEYKICRGIKEGRLTKPIVCWCIGTCATMFSSEVQFGHAGACANQASETAVAKNQALKEAGVFVPRSFDELGEIIQSVYEDLVANGVIVPAQEVPPPTVPMDYSWARELGLIRKPASFMTSICDERGQELIYAGMPITEVFKEEMGIGGVLGLLWFQKRLPKYSCQFIEMCLMVTADHGPAVSGAHNTIICARAGKDLVSSLTSGLLTIGDRFGGALDAAAKMFSKAFDSGIIPMEFVNKMKKEGKLIMGIGHRVKSINNPDMRVQILKDYVRQHFPATPLLDYALEVEKITTSKKPNLILNVDGLIGVAFVDMLRNCGSFTREEADEYIDIGALNGIFVLGRSMGFIGHYLDQKRLKQGLYRHPWDDISYVLPEHMSM
B8: ARFIP1 (protein, UniProt P53367 2-373, looked up)
Arfaptin-1: AQESPKNSAAEIPVTSNGEVDDSREHSFNRDLKHSLPSGLGLSETQITSHGFDNTKEGVIEAGAFQGSPAPPLPSVMSPSRVAASRLAQQGSDLIVPAGGQRTQTKSGPVILADEIKNPAMEKLELVRKWSLNTYKCTRQIISEKLGRGSRTVDLELEAQIDILRDNKKKYENILKLAQTLSTQLFQMVHTQRQLGDAFADLSLKSLELHEEFGYNADTQKLLAKNGETLLGAINFFIASVNTLVNKTIEDTLMTVKQYESARIEYDAYRTDLEELNLGPRDANTLPKIEQSQHLFQAHKEKYDKMRNDVSVKLKFLEENKVKVLHNQLVLFHNAIAAYFAGNQKQLEQTLKQFHIKLKTPGVDAPSWLEEQ

Key:
[1] = molecular target: T1, HCV ORFs (Gal4-DB fusions) (Hepatitis C virus genotype 1b, UniProt Q9WMX2); type: binding, HCV genotype 1b, isolate con1; conditions: human protein as prey
T1 construct: expressed in transfected cells; host or cells: Saccharomyces cerevisiae MAV203 (IMAP1) / AH109 (IMAP2)

[2] = system: HCV ORFs (Gal4-DB fusions); type: binding, HCV genotype 1b, isolate con1; conditions: human protein listed by gene symbol; the value names the HCV protein it interacts with
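Further: yeast two-hybrid screens using HCV genotype 1b proteins fused to Gal4-DB as baits against prey cDNA libraries from human spleen and foetal brain, IMAP1 via transformation and IMAP2 via mating.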

Molecule	IMAP Y2H IMAP2 (number of IST) ([1]; HCV protein NS5A as bait)	Interaction with viral protein [2]	IMAP Y2H IMAP2 (number of IST) ([1]; HCV protein NS4A as bait)	IMAP Y2H IMAP2 (number of IST) ([1]; HCV protein NS3 as bait)
B1	1	NS5A	–	–
B2	–	NS4A	1	–
B3	1	NS5A	–	–
B4	1	NS5A	–	–
B5	–	NS3	–	2
B6	1	NS5A	–	–
B7	1	NS5A	–	–
B8	9	NS5A	–	–
